According to publication PMC9481563, “Structural insights into the pSer/pThr dependent regulation of the SHP2 tyrosine phosphatase in insulin and CD28 signaling” (Nature Communications, 2022):

Biological target: PTP1B catalytic domain, inactive C215S mutant (1-229 as printed) (human) (UniProt P18031)
Test: fluorescence polarisation; competitive titration: labelled CF-ppIRS1 and protein both fixed (50-80% saturation), unlabelled competitor peptide varied; triplicates; Kd from cubic fit

Chain of PTP1B catalytic domain, inactive C215S mutant (1-229 as printed) (human) (P18031 1-229 C215S): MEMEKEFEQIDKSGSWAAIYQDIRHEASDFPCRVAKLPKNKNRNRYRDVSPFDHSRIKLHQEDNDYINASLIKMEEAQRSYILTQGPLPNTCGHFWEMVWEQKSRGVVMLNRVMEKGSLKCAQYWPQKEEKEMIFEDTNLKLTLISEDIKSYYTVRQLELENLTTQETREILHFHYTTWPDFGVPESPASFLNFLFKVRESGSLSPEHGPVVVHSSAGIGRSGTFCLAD

| fold increase of binding over p0IRS1 [fold] | fold increase of binding over p0CD28 [fold] | Substance |
| --- | --- | --- |
| 19 |  | ppIRS1, IRS1 peptide dually phosphorylated (pY632 + pS636) |
|  | 2 | ppCD28, CD28 peptide dually phosphorylated (pY191 + pT195) |
